The numbers were not newly measured in paper PMC9570074, which cites them from elsewhere.

Where two headings read alike, the source gives them in different places.

The target in series [1] is TRAIL (Homo sapiens) (UniProt P50591).
The target is the same in series [2]. This is another data set of the same source.
A further series deals with CD30L (Homo sapiens) (UniProt P32971). The experiment in a line: SPR. (In general: Surface plasmon resonance follows binding to a sensor surface in real time, without labels.)
Sequence of UniProt P32971 (P32971 whole entry): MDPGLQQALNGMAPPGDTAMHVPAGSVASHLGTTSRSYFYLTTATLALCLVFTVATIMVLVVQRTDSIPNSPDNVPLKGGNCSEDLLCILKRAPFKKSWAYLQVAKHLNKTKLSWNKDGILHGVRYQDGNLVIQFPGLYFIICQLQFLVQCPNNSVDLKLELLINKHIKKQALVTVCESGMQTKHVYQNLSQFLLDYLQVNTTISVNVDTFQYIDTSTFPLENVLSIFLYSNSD

Sequence of UniProt P50591 (P50591 whole entry): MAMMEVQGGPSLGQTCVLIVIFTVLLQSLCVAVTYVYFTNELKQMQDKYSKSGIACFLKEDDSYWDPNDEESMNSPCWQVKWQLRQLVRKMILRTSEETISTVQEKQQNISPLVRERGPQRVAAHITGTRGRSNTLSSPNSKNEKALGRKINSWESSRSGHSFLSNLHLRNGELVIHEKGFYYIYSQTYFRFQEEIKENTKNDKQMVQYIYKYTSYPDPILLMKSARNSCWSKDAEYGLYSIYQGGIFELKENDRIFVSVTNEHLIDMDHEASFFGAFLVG

Regarding DcR1 (from UniProt O14798), the dissociation constant (Kd) with TRAIL (Homo sapiens) [1] was 1 nM.

DcR2 (from UniProt Q9UBN6): in the series with TRAIL (Homo sapiens) [2], the dissociation constant Kd was 1 nM.

CD30 (from UniProt P28908): in the series with CD30L (Homo sapiens), the Kd is 5 nM.

The Kd is the free concentration of one partner at which half of the binding sites on the other are occupied at equilibrium, for simple one-to-one binding.
